Measurements: patent US20140286950A1 (Genentech, published 2014)

B1: anti-CD83 antibody 60B10 (antibody, V domains shown)
VH: QVQLKESGPGLVKPSQSLSLTCSVTGFSITTGGYWWTWIRQFPGQKLEWMGYIFSSGNTNYNPSIKSRISITRDTSKNQFFLQLNSVTTEGDTARYYCARAYGKLGFDYWGQGTLVTVSS
VL: QPVLTQSPSASASLGNSVKITCTLSSQHSTYTIGWYQQHPDKAPKYVMYVNSDGSHSKGDGIPDRFSGSSSGAHRYLSISNIQPEDEADYFCGSSDSSGYVFGSGTQLTVL
notes: also called 60B10 Anti-human CD83
B2: anti-CD83 antibody 42C6 (antibody, V domains shown)
VH: QVQLKESGPGLVKPSQSMSLTCSVNGFSITSRYWWTWIRQFPGKNLEWMGYISYSGGTSYNPSLKSRISITRDTSKNQFFLHLNSVTTADTATYYCARDLYGTYFDYWGQGTMVTVSS
VL: QYELIQPKSVSESLGRTVTISCKRSSGNIGNNYVHWYQQHFGSSPKTVIYDDNKRPSGVPHRFSGSIDSSSNSASLTITDLQIEDEAEYYCQSAWVFGSGTKVTVL
notes: also called 42C6 Anti-mouse CD83
B3: anti-CD83 antibody 39A2 (antibody, V domains shown)
VH: QVQLKESGPGLVKPSQSMSLTCSVNGFSITSRYWWTWIRQFPGKNLEWMGYISYSGGTSYNPSLKSRISITRDTSKNQFFLHLNSVTTADTATYYCARDLYGTYFDYWGQGTLVTVSS
VL: QYELIQPKSVSESLGRTVTISCKRSSGNIGNNYVHWYQQHFGSSPKTVIYDDNKRPSGVPHRFSGSIDSSSNSASLTITDLQIEDEAEYYCQSAWVFGSGTKVTVL
notes: also called 39A2 Anti-mouse CD83

How the values were obtained:
[1] = biological target: T1, N-terminal HIS-tagged human CD83 stably expressed on CHO cells (CHO-hCD83) (human, UniProt Q01151 20-205); assay: flow cytometry on CHO-hCD83 cells, anti-hamster IgG secondary
T1 construct: also called CHO cells expressing human CD83; not shown: N-terminal HIS tag
T1 sequence: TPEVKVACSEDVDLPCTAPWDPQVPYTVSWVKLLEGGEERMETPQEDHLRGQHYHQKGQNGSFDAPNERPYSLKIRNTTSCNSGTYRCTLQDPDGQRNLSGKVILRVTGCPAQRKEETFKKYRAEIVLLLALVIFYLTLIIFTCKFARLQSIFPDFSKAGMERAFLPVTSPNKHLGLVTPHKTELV
Protocol: (§1) The generated antibodies were assayed for their ability to bind human CD83 or mouse CD83 stably expressed on CHO cells. To generate an expression vector for the production of the stable cell lines, a DNA fragment encoding an N-terminal HIS-tagged human CD83 (hCD83) or an N-terminal HIS-tagged mouse CD83 (mCD83) was cloned into the neomycin-resistance plasmid, pRKneo (Crowley et al., Proc Natl Acad Sci USA., 90(11):5021-5025, 1993), at the XbaI and XhoI sites to produce hCD83.pRKneo or mCD83.pRKneo, respectively. CHO cells were transfected with hCD83.pRKneo or mCD83.pRKneo using Fugene (Roche) and the top 10% of CD83 positive cells were sorted by FACS then selected with G418 ([…]; GIBCO) to generate the stable CHO-hCD83 or CHO-mCD83 cell line, respectively. CHO-hCD83 and CHO-mCD83 cells were resuspended in a FACS buffer containing PBS/2% BSA/2 mM EDTA and incubated with anti-human CD83 antibodies or anti-mouse CD83 antibodies for 30 minutes on ice. Cells were washed with FACS buffer and then incubated with a fluorochrome conjugated anti-hamster IgG secondary antibody for 30 minutes on ice in the dark. Cells were washed with FACS buffer and analyzed by flow cytometry on a LSR II flow cytometer using FACSDiva software (Becton Dickinson). Data analysis and construction of diagrams was done using FlowJo v.9.4.11.

[2] = biological target: T2, N-terminal HIS-tagged mouse CD83 stably expressed on CHO cells (CHO-mCD83) (mouse, UniProt O88324 22-196); assay: flow cytometry on CHO-mCD83 cells, anti-hamster IgG secondary
T2 construct: whole, on cells; also called CHO cells expressing mouse CD83; not shown: N-terminal HIS tag
T2 sequence (looked up): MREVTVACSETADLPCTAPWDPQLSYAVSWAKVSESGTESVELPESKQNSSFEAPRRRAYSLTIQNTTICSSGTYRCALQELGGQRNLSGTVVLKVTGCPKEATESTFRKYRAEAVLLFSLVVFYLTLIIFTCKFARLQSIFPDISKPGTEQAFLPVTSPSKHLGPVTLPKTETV
Protocol: as §1

| Binder | binding result [1] | binding result [2] |
| --- | --- | --- |
| B1 | binds | binds |
| B2 | no binding | binds |
| B3 | no binding | binds |
